The record followed here is patent US20060051842A1 (AMRAD OPERATIONS, published 2006).

Assay [1] has as its target T1, LIF receptor and gp130 expressed by parental M1 cells (mouse; murine, UniProt P42703 44-1092; Q00560 23-917).
T1 construct: whole, on cells; Untransfected cells
Kind of assay: binding of 125I-LIF to parental M1 cells.

For assay [2], the target named is T2, Nr1 (murine IL-11 receptor α-chain) expressed in Ba/F3 cells (murine, UniProt Q64385 24-432).
T2 construct: also called Ba/F3 cells expressing Nr1; Ba/F3 Nr1
T2 sequence: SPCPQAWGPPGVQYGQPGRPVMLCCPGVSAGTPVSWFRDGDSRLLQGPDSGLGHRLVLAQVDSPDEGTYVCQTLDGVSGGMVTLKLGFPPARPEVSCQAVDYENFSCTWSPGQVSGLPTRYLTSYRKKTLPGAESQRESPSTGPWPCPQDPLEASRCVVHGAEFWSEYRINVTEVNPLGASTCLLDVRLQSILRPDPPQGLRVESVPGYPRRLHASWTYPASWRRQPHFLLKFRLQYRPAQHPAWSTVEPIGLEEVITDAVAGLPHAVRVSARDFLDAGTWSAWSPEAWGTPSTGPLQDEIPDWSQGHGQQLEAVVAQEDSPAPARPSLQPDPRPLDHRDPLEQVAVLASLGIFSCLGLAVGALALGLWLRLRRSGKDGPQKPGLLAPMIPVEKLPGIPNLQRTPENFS
Description: binding of 125I-LIF to transfected Ba/F3 cells.

Assay [3] has as its target T3, Nr1, gp130 and the LIF receptor co-expressed in Ba/F3 cells (murine; mouse; human, UniProt Q00560 23-917; P42702 45-1097).
T3 construct: whole, on cells; also called Ba/F3 Nr1/gp130/LIF receptor
Description: competition with 125I-IL-11 on Ba/F3 cells expressing Nr1, gp130 and the LIF receptor. The protocol: (§1) After 18 hours incubation on ice, bound and free IL-11 were separated by centrifugation through foetal calf serum. Bound and free ¹²⁵I-IL-11 were quantitated in a γ-counter and the amount of binding was expressed as a percentage of that observed in the absence of competitor.

The target of assay [4] is T2, Nr1 (murine IL-11 receptor α-chain) …. Kind of assay: Scatchard analysis of 125I-IL-11 saturation binding to Ba/F3 cells expressing Nr1. The source says: FIGS. 4A-4D are graphical representations of scatchard analyses of saturation isotherms of IL-11 binding to various cell lines; (4A) parental Ba/F3 cells (●), Ba/F3 cells expressing Nr1 (◯), Ba/F3 cells expressing Nr1 and the LIF receptor (▪), (4B) Ba/F3 cells expressing the LIF receptor and gp130 (▪), Ba/F3 cells expressing Nr1 and gp130 (●), Ba/F3 cells expressing the Nr1, LIF receptor and gp130 (◯), (4C) parental M1 cells (▪), M1 cells expressing Nr1 (◯), and (4D) 3T3-L1 cells (●) were incubated with various concentrations of labelled IL-11 in the presence of absence of a 10-100-fold excess of unlabelled IL-11. After 18 hours incubation on ice, bound and free IL-11 were separated by centrifugation through foetal calf serum. Bound and free ¹²⁵I-IL-11 was quantitated in a γ-counter and the data was depicted as a Scatchard transformation. In each case data were normalised for cell number and shown as binding to 10⁶ cells.

Assay [5] has the same target. Kind of assay: binding of 125I-OSM to transfected Ba/F3 cells.
Assay [6] has as its target T1, LIF receptor and gp130 expressed by …. Kind of assay: binding of 125I-OSM to parental M1 cells.
In assay [7] the target is T4, Nr1 and gp130 co-expressed in Ba/F3 cells (murine; mouse, UniProt Q00560 23-917).
T4 construct: whole, on cells; also called Ba/F3 Nr1/gp130; Ba/F3 cells expressing the murine IL-11rα and murine gp130
T4 sequence 1: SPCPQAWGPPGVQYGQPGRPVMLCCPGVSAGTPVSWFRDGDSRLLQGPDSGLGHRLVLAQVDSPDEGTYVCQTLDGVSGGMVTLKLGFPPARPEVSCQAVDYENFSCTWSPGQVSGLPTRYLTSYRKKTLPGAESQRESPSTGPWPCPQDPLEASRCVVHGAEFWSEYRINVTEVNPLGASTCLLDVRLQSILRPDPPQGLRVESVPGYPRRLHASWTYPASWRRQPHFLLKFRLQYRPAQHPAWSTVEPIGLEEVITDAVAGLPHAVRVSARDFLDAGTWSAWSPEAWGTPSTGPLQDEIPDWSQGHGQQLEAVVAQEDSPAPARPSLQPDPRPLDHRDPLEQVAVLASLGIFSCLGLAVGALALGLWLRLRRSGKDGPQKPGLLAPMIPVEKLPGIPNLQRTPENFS
T4 sequence 2: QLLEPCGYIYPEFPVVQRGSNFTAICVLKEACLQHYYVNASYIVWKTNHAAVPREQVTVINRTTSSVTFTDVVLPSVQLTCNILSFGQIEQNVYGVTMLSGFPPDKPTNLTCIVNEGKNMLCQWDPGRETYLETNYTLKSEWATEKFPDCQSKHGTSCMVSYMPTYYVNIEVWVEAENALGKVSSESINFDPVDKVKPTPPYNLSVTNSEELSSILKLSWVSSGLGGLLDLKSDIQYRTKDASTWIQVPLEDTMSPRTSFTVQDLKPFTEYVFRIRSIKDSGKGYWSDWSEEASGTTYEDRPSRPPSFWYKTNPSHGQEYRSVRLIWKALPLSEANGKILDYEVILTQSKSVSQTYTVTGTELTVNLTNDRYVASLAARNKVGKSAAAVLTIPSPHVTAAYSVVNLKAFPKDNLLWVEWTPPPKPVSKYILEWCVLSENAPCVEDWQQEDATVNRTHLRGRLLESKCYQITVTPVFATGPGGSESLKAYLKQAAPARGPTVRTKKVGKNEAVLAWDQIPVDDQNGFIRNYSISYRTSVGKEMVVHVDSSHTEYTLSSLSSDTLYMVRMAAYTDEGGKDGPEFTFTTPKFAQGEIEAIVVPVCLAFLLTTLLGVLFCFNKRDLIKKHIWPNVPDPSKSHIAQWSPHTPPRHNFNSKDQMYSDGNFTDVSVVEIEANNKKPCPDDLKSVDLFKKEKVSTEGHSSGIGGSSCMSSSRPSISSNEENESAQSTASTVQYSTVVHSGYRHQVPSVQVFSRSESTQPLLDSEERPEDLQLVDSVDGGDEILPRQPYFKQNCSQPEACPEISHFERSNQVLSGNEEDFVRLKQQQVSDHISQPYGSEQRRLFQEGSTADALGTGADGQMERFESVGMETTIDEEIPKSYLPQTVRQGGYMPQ
Kind of assay: competition with 125I-IL-11 on Ba/F3 cells expressing Nr1 and gp130; competitor of labelled IL-11. On the procedure:
as §1

The target in assay [8] is T1, LIF receptor and gp130 expressed by …. Kind of assay: binding of 125I-labelled human IL-11 to cells.

T1 sequence (P42703 44-1092, one chain of several): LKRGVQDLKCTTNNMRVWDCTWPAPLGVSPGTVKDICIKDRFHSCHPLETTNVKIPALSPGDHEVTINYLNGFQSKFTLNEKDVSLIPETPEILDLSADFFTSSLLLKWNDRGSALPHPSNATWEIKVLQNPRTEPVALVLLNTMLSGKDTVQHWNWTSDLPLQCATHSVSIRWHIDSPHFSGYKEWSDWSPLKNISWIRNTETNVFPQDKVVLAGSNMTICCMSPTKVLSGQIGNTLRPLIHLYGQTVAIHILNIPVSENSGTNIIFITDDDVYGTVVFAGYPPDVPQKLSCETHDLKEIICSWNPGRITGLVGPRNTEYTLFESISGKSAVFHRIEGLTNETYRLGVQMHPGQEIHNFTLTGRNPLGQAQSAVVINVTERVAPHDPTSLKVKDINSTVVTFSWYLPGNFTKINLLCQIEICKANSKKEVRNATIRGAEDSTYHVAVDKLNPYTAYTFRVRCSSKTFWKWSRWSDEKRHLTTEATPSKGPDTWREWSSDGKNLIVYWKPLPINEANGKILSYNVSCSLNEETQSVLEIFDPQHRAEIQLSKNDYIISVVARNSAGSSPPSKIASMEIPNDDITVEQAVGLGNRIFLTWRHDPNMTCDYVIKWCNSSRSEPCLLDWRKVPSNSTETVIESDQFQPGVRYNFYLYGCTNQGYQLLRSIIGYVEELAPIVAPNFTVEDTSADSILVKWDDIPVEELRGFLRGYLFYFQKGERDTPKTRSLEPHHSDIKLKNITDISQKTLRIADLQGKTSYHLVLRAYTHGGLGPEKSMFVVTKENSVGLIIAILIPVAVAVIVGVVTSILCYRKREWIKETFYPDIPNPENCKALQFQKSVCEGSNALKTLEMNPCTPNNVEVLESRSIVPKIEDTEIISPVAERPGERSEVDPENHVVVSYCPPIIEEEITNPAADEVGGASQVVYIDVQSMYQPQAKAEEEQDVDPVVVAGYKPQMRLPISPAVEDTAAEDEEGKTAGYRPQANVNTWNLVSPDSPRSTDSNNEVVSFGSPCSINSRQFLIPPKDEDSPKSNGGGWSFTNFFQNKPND
T3 sequence (P42702 45-1097, one chain of several): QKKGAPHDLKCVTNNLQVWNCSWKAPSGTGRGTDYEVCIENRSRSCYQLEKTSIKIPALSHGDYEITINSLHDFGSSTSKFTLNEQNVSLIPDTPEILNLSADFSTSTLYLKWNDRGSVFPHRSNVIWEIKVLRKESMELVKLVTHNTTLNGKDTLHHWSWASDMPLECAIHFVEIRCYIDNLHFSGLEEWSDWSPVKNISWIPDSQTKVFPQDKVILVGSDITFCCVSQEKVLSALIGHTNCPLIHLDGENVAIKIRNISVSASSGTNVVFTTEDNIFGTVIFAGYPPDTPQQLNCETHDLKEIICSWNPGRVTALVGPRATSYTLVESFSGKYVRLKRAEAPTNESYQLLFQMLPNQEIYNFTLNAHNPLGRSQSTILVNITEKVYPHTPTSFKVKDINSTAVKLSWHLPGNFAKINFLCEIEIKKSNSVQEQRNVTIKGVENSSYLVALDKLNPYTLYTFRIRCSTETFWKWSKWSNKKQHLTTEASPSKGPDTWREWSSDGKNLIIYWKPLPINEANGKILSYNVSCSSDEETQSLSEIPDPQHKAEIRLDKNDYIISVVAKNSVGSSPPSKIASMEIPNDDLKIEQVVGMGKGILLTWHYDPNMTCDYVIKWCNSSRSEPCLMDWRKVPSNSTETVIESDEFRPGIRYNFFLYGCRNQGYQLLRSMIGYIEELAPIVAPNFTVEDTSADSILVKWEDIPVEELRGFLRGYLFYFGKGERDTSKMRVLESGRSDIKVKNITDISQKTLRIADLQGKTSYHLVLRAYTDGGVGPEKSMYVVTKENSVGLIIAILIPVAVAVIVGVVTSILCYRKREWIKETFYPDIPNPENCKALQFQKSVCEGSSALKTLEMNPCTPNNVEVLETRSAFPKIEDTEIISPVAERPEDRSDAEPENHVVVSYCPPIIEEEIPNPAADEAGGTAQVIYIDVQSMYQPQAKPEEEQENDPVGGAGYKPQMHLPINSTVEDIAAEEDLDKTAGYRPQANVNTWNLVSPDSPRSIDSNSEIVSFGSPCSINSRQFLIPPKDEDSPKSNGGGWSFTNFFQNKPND

B1: human LIF (produced using the pGEX system) (ligand)
chain: not shown
modifications: 125I-labelled where used as labelled ligand
For B1, the binding result in assay [1] is given as “binds”; in assay [2], “no binding”; in assay [3], “binds”.

B2: IL-11 (purchased from PeproTech; used in Examples 7, 8, 12 and 13) (ligand)
chain: PGPPPGPPRVSPDPRAELDSTVLLTRSLLADTRQLAAQLRDKFPADGDHNLDSLPTLAMSAGALGALQLPGVLTRLRADLLSYLRHVQWLRRAGGSSLKTLEPELGTLQARLDRLLRRLQLLMSRLALPQPPPDPPAPPLAPPSSAWGGIRAAHAILGGLHLTLDWAVRGLLLLKTRL
modifications: The tracer form (125I-IL-11) was radio-iodinated with monoiodinated Bolton-Hunter reagent on amino groups. The positions are not stated and the letters are unchanged.
notes: Species ambiguous: 'Murine' may apply to IL-3 only; also called labelled IL-11
The term Kd denotes the equilibrium constant for the complex coming apart. Low values mean higher affinity, high ones lower affinity. With B2, in assay [4], the Kd was around 0.01 nM.

B3: human OSM (produced using the pGEX system) (ligand, UniProt P13725 26-221, looked up)
chain: AAIGSCSKEYRVLLGQLQKQTDLMQDTSRLLDPYIRIQGLDVPKLREHCRERPGAFPSEETLRGLGRRGFLQTLNATLGCVLHRLADLEQRLPKAQDLERSGLNIEDLEKLQMARPNILGLRNNIYCMAQLLDNSDTAEPTKAGRGASQPPTPTPASDAFQRKLEGCRFLHGYHRFMHSVGRVFSKWGESPNRSRR
modifications: 125I-labelled where used as labelled ligand
As for B3, the binding result was “no binding” in assay [5], “binds” in assay [6], “binds” in assay [7] and “binds” in assay [3].

B4: N-terminal flag human IL-11 (expressed in COS-M6 cells, used in ligand binding studies) (ligand)
chain: DYKDDDDKPGPPPGPPRVSPDPRAELDSTVLLTRSLLADTRQLAAQLRDKFPADGDHNLDSLPTLAMSAGALGALQLPGVLTRLRADLLSYLRHVQWLRRAGGSSLKTLEPELGTLQARLDRLLRRLQLLMSRLALPQPPPDPPAPPLAPPSSAWGGIRAAHAILGGLHLTLDWAVRGLLLLKTRL
modifications: radio-iodinated (125I) with Bolton-Hunter reagent
notes: mature; also called radio-labelled human IL-11
In the case of B4, the binding result in assay [8] is “no binding”.
